According to US8349801B2, “Peptide ligands for G-protein coupled receptors” (priority 2006, dated 2013):
No end group written: not given here.

How the values were obtained:
Mas receptor = molecular target: T1, Mas receptor (Homo sapiens, UniProt P04201); test: Calcium flux in CHO-K1 cells co-transfected with Mas receptor and Gα16; format: cell-based; details: for ability to induce calcium flux, P33 monomer, dimer and derivatives compared: 0.1, 1, 10, 100, 1000 and 10000 nM; for ability to induce calcium flux, P61-related peptides compared: dose response; for EC50: doses 10-3000 nM, highest response not reached
T1 construct: expressed in transfected cells; host or cells: CHO-K1 (ATCC-CCL-61), transient co-transfection
T1 sequence (P04201 1-325): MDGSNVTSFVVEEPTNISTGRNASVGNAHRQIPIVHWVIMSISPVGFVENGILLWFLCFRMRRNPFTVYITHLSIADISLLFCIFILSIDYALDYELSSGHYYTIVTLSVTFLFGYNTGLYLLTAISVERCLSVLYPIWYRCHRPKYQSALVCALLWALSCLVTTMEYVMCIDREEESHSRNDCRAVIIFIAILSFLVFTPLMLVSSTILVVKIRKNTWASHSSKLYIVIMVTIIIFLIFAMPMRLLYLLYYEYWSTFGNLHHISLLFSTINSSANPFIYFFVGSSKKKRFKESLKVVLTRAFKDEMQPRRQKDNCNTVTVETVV
Description: (§1) The assay was carried out in CHO cells were transiently transfected with the GPCR of choice, by utilizing the promiscuous Gα16 to divert signaling to the Gq pathway, thus enabling readout of GPCR activation by testing for Calcium flux as described by Liu et al 2003 (Biomol Screen 8, 39-49).
(§2) All the peptides thus obtained were tested for their ability to change calcium flux in CHO—K1 cells (ATCC-CCL-61) transiently co-transfected with an expression vector containing the GPCR of choice and expression vector containing the Gα16 encoding cDNA. Expression constructs containing cDNA clones for MrgX1, MrgX2, Mas or FPRL1 were commercially obtained in one of the following expression vectors: pcDNA3.1, pCMV6, or MO2.
(§3) Transient transfections were performed using CHO—K1 cells as host cells. Cells (12 million) were plated into T75 flasks on the day preceding transfection. Cells were transfected with the appropriate GPCR expression vector and with a vector expressing Gα16 using a lipid-based reagent, MTI, according to the manufacturer's recommendation. Cells were transfected for 5 hours, then re-plated into 96-well dishes (60,000 cells per well) and grown overnight.
(§4) On the day of the experiment, cells were loaded with Fluo4-NW (Invitrogen) according to the manufacturer's recommendation. Plates were loaded into a FlexStation™ (Molecular Devices) plate reader and fluorescence was monitored. Seventeen seconds following initiation of reading, cells were stimulated with the indicated agonist/compound at final concentration of 1 μM. Each 96 well plate contained cells transfected with one GPCR expression vector and each of the examined peptides was tested in triplicate.
(§5) We defined a hit as a peptide which elicited a clear and distinct increase in intracellular calcium that is clearly visible and statistically significant upon examination of the calcium trace for at least two repeats. The criterion for statistical significance was a p-value lower than 0.001 in a t-test comparing the levels of calcium before and after peptide addition.
(§6) Based on dose response experiments, EC50 best fit values were calculated by non-linear regression of sigmoidal dose-response curves, using Prism version 4 (GraphPad Software Inc., San Diego, Calif.). The formulae for the sigmoidal dose-response curves was defined as Y=Bottom+(Top−Bottom)/(1+10^ (LogEC50−X)*HillSlope))
The ability of Peptides to change calcium flux was examined in CHO—K1 cells co-transfected with Mas receptor and Gα16.

FPRL1 = molecular target: T2, FPRL1 (Homo sapiens, UniProt P25090); test: Calcium flux in CHO-K1 cells co-transfected with FPRL1 and Gα16; format: cell-based; set-up: expressed in transfected cells; host or cells: CHO-K1 (ATCC-CCL-61), transient co-transfection; details: for ability to induce calcium flux, P33-derived peptides: 0.1, 1, 10, 100, 1000, 10000 nM; for calcium flux, P58 and derivatives: dose response
T2 sequence (P25090 1-351): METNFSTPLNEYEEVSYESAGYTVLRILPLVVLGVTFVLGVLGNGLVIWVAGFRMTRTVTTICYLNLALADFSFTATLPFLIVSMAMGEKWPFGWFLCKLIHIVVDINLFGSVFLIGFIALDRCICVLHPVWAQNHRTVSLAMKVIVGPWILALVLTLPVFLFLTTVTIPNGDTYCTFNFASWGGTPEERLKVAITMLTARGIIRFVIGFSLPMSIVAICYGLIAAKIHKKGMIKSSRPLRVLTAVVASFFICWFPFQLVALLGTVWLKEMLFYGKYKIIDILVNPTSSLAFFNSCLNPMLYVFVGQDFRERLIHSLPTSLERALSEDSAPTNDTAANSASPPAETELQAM
Description: as §1, §2, §3, §4, §5, §6
The ability of Peptides to change calcium flux was examined in CHO—K1 cells co-transfected with FPRL1 and Gal 6.

[1] = test system: aortic rings from Wistar rat; test: Vasorelaxant activity in phenylephrine pre-contracted aortic rings; details: for vasodilator effect in the presence of L-NAME: 100 μM L-NAME, NO synthase inhibitor; for vasodilator effect in the absence of functional endothelium: endothelium-denuded vessels; for Maximal values for the relaxant effect (Emax): mean±SEM
Text: Male Wistar rats of the age of 13-14 weeks (body weight: 250 to 300 g) were used. The rats were exposed to light-dark cycle of 12 hs (day—06:00 to 18:00; night—18:00 to 06:00) controlled by timer. Rats were killed by decapitation and exsanguination and tissues were rapidly removed.
Rings (3-4 mm) from the descending thoracic aorta, free of adipose and connective tissue, were set up in gassed (95% O2 and 5% CO2) Krebs-Henseleit solution (mmol/L): NaCl 110.8, KCl 5.9, NaHCO3 25.0, MgSO4 1.07, CaCl2 2.49, NaH2PO4 2.33 and glucose 11.51, at 37° C., under a tension of 1.0 g, for 1 hour to equilibrate. The presence of functional endothelium was assessed by the ability of Acetylcholine (1 μM) to induce more than 70% relaxation of vessels pre-contracted with phenylephrine (0.3 μM) (Lemos et al., 2005). When necessary, the endothelium was removed by rubbing the intimal surface with a wooden stick. Mechanical activity, recorded isometrically by a force transducer (Panlab, model number TR1210, Spain), was fed to an amplifier-recorder (Powerlab 4/20, ADInstruments, Inc.) and to a personal computer equipped with an analogue-to-digital converter board (AD16JR; World Precision Instruments, Inc.), using CVMS data acquisition/recording software (World Precision Instruments, Inc.).
The vasorelaxant activity of peptides —P61_S (SEQ ID NO:10), P61 (SEQ ID NO.9)-dimer (P61_D), P33_V (SEQ ID NO:7) and P33 (SEQ ID NO:6)-dimer (P33_D) were measured in vessels (N=5-8) with or without functional endothelium pre-contracted to the same tension level (approximately 1.5 g of tension) induced by submaximal concentrations of phenylephrine (0.01 μM). For comparison, the effect of Ang-(1-7) was also tested (N=4)
P61_S (SEQ ID NO:10), P61 (SEQ ID NO9)-dimer (P61_D), P33_V (SEQ ID NO:7) or P33 (SEQ ID NO:6)-dimer (P33_D) were added in increasing cumulative concentrations (0.0001 to 1 μM) once the response to phenylephrine had stabilized (FIG. 28). In order to verify the participation of endothelium-derived products in the relaxant effect of peptides, experiments were performed in the presence of 100 μM N′-Nitro-L-Arginine Methyl Ester-[L-NAME]—a nonselective inhibitor of nitric oxide synthase. In experiments performed in the presence of L-NAME, vessels were pre-contracted with 0.03 μM of phenylephrine, to achieve the same tension level as the others. L-NAME was added to the bath 20 min prior to the addition of phenylephrine.
Results are presented as mean±SEM. Two-way analysis of variance (ANOVA) with Bonferroni multiple comparison post-test was used to compare concentration response curves obtained in aortic rings. The vasodilator effect of P61_S (SEQ ID NO:10), P61 (SEQ ID N09)-dimer (P61_D), P33_V (SEQ ID NO:7), P33 (SEQ ID NO:6)-dimer (P33_D) and Ang-(1-7) were expressed as percentage decrease in maximal contraction induced by phenylephrine. All statistical analyses were considered significant when p<0.05.

[2] = vessels with endothelium, 0.0001 to 1 μM cumulative

AVLFPAAHRP (listed as Homo sapiens) [P33—5]
ability to induce calcium flux, P33 monomer, dimer and derivatives compared (Mas receptor): no activity
ability to induce calcium flux, P33-derived peptides (FPRL1): failed to induce calcium flux

Angiotensin 1-7 [Ang-(1-7), reference compound]
vasodilator effect in the presence of L-NAME [1]: completely inhibited
vasodilator effect in the absence of functional endothelium [1]: abolished
Maximal values for the relaxant effect (Emax) [1, 2]: 15.64±1.91%
Maximal values for the relaxant effect (Emax) ([1]; vessels without endothelium): 2.82±3.11%
Ca response (Mas receptor; dose response experiment, data not shown): did not induce Ca response

FAFLGYSIYLNRKRRGDPAF (listed as Homo sapiens) [P61—11S]
ability to induce calcium flux, P61-related peptides compared (Mas receptor): as potent as P61_S

FLGYSIYLNRKRRGDPAFKRRLRD [Peptide P61_S]
EC50 (Mas receptor): ≥ 500 nM

HRWSRAVLFPAAHRP (listed as Homo sapiens) [P33—9]
ability to induce calcium flux, P33 monomer, dimer and derivatives compared (Mas receptor): induced calcium flux, albeit at a somewhat lower degree compared to P33_V
ability to induce calcium flux, P33-derived peptides (FPRL1): failed to induce calcium flux

IYLNRKRRGDPAFKRRLRD (listed as Homo sapiens) [P61—4]
ability to induce calcium flux, P61-related peptides compared (Mas receptor): somewhat weaker

RWSRAVLFPAAHRP (listed as Homo sapiens) [P33—8]
ability to induce calcium flux, P33 monomer, dimer and derivatives compared (Mas receptor): induced calcium flux, albeit at a somewhat lower degree compared to P33_V
ability to induce calcium flux, P33-derived peptides (FPRL1): failed to induce calcium flux

SMCHRWSRAVLFPAAHRP [P33_dimer] (also: dimer via cysteine; listed as Homo sapiens) [Peptide P33_dimer]
vasodilator effect in the presence of L-NAME [1]: completely inhibited
vasodilator effect in the absence of functional endothelium [1]: completely inhibited
Maximal values for the relaxant effect (Emax) [1, 2]: 17.78±3.43%
ability to induce calcium flux, P33 monomer, dimer and derivatives compared (Mas receptor): superior to the monomeric peptides
ability to induce calcium flux, P33-derived peptides (FPRL1): inactive

SMCHRWSRAVLFPAAHRP [Peptide P33_mono]
ability to induce calcium flux, P33 monomer, dimer and derivatives compared (Mas receptor): equally potent
ability to induce calcium flux, P33-derived peptides (FPRL1): similarly potent

SMVHRWSRAVLFPAAHRP [Peptide P33_V, SMVHRWSRAVLFPAAHRP]
EC50 (Mas receptor): ≥ 1000 nM

TIPMFVPESTS (listed as Homo sapiens) [P58—6]
calcium flux, P58 and derivatives (FPRL1): did not induce calcium flux

TIPMFVPESTSKLQ (listed as Homo sapiens) [P58—7]
calcium flux, P58 and derivatives (FPRL1): did not induce calcium flux

TIPMFVPESTSTLQ (listed as Homo sapiens) [P58—12]
calcium flux, P58 and derivatives (FPRL1): did not induce calcium flux

TIPMFVPESTSTLQKFTSWFM-amide (TIPMFVPESTSTLQKFTSWFM-NH2; listed as Homo sapiens) [P58—10]
calcium flux, P58 and derivatives (FPRL1): elicited calcium flux

WSRAVLFPAAHRP (listed as Homo sapiens) [P33—10]
ability to induce calcium flux, P33 monomer, dimer and derivatives compared (Mas receptor): induced calcium flux, albeit at a somewhat lower degree compared to P33_V
ability to induce calcium flux, P33-derived peptides (FPRL1): failed to induce calcium flux
